According to patent US11932673B2, “Sodium channel inhibitors” (priority 2017, dated 2024):

What was measured:
trypsin [1] = assay: Phage TRF binding assay of KnotBody phage on immobilised biotinylated trypsin
Experimental: Phage display technology facilitates isolation of binders to any given target from large combinatorial repertoires based on proteins and peptides that can be presented on the surface of filamentous phage^105. In order to isolate functional knottin-antibody fusions from the KnotBody libraries multiple rounds of phage display selections on trypsin (cognate antigen for the EETI-II donor) were carried out. Phage particles were prepared by rescuing KnotBody libraries using trypsin cleavable helper phage^102,106 Two rounds of phage display selections were performed on 10 μg/ml biotinylated trypsin immobilised on Streptavidin (for Round-1) or Neutravidin (for round-2) coated Maxisorp™ immunotubes (Thermo Scientific, Cat No. 444202). In both rounds of selection, phage libraries were pre-incubated with streptavidin coated paramagnetic beads (Thermo Fisher Scientific, Cat. No. 11205D). These beads were removed prior to the addition the phage to the antigen tubes to limit the streptavidin binders entering the selection. Polyclonal phage preparations from round-2 selection outputs were analysed for trypsin binding using a time resolved fluorescence (TRF) binding assay. In this assay, polyclonal phage binding to biotinylated trypsin immobilised on neutravidin (Thermo Fisher Scientific, Cat. No 31000) coated Maxisorp™ plates (Thermo Scientific, Cat. No. 437111) was detected using a mouse anti-M13 antibody (GE Healthcare, Cat. No. 27-9420-01) followed by europium conjugated anti-mouse antibody (Perkin Elmer, Cat. No. AD0124).
In order to identify monoclonal KnotBodies with desired binding characteristics, 94 individual clones derived from 2 rounds of selection using EETI-II CDR1 or CDR2 libraries were picked into 96 well culture plates and phage were prepared from each clone. Methods for screening by monoclonal phage ELISA are known in the art^107. […] Clones with >3× binding signal above background were picked as positive clones and sequenced to identify unique clones. 14 and 42 unique binders were identified from EETI-II CDR1 and EETI-II CDR2 libraries respectively (Table 1). 18 binders from the EETI-II CDR2 library and 3 binders from the EETI-II-CDR1 library were chosen for further characterisation based on their VL and linker sequence diversity. These binders were assigned new clone identification numbers (Table 2). […] In order to confirm that the loss of trypsin binding was not due to reduced expression or display of pIII fusion phage was prepared from 11 (randomly chosen) KnotBodies and their GlyAla variants were analysed on a western blot using an antibody which recognises the product of gene 3 (pIII) using an anti-pIII antibody (MoBiTec GmbH) (FIG. 6).

huASIC1a = biological target: T1, huASIC1a (Homo sapiens, UniProt P78348); assay: QPatch automated whole-cell patch-clamp on HEK293 cells stably expressing huASIC1a; type: cell-based; conditions: pH 6.0 activation after 15-20 min pre-incubation; concentration μM: KB_A07_PcTx1 6.6, KB_A12_PcTx1 5, KB_A12_Mba-1 3, KB_A12_Mba-2 2.3, KB_A07 6, KB_A12 3.3
T1 sequence (P78348 whole entry, looked up): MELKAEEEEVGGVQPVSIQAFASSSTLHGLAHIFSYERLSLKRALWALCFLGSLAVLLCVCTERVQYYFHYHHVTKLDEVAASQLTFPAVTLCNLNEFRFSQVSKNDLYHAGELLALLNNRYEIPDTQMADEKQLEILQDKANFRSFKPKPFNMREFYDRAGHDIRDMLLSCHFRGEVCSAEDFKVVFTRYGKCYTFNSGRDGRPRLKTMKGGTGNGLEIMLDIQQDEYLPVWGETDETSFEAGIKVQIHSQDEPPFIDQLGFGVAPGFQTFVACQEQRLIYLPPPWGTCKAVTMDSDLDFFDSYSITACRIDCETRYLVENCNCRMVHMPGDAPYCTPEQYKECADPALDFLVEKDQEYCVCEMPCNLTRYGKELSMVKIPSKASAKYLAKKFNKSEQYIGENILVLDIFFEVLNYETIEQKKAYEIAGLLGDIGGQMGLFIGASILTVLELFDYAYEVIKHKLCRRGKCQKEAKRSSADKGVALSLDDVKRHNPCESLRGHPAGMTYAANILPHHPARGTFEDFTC
Experimental: Knottin Kv 1.3 and ASIC1a blockers expressed in the KnotBody format (see examples 6 and 7) were tested for their ability to inhibit the function of the ion channel targets. The effect of these KnotBodies on cells expressing the human Kv 1.3 (huKv1.3) or human ASIC1a channels was assessed using QPatch automated whole-cell patch-clamp electrophysiology (Sophion).
To functionally assess the ASIC1a KnotBodies, HEK293 cells stably expressing huASIC1a (Sophion) were analysed using a QPatch electrophysiology assay in the presence or absence of the KnotBody fusions (using KB_A12 as a recipient and replacing the original EETI-II donor as shown in Table 8). The “parental” KB_A12 with the EETI-II donor was used as a negative control. Internal and external physiological solutions were freshly prepared prior to the assay. […]
At the end of each KnotBody incubation and subsequent ASIC1a current activation, a full blocking concentration (300 nM) of the ASIC1a knottin inhibitor PcTx1 (positive control) was perfused onto the cell recording and a final activating pH 6.0 external solution was applied. The percentage remaining signal between activating pH 6.0 baseline (i.e. pre-KnotBody) and post-KnotBody incubation was determined.

trypsin [2] = assay: TRF binding assay of purified KnotBody Fabs on biotinylated trypsin
LOX-1 = LOX-1 (Homo sapiens, UniProt P78380); assay: Phage TRF binding assay of adhiron-antibody fusions on LOX-1; conditions: monoclonal phage; LOX-1 directly immobilised; non-specific binding checked on cMET-FC, GAS6-CD4, FGFR4-CD4, UPA, B-gal
Experimental: In order to test the functionality of these adhiron-antibody fusions, monoclonal phage prepared from each clone was assessed for binding to LOX-1 in a TRF binding assay. In this assay, LOX-1 (immobilised directly on Maxisorp™ plates) binding of phage displaying adhiron-antibody fusion was detected using a mouse anti-M13 antibody (GE Healthcare) followed by europium conjugated anti-mouse antibody (Perkin Elmer). Parent KnotBodies KB_A07 and KB_A12 (EETI-II fusions) were included as controls. Proteins cMET-FC, GAS6-CD4, FGFR4-CD4, UPA and B-gal were used to examine non-specific binding.

human Nav1.7 = human Nav1.7 (Homo sapiens, UniProt Q15858); assay: QPatch patch-clamp on CHO cells stably expressing human Nav1.7, single application (Example 19); type: cell-based
Sequence of human Nav1.7 (Q15858 other isoform, or with tags, fused parts or gaps): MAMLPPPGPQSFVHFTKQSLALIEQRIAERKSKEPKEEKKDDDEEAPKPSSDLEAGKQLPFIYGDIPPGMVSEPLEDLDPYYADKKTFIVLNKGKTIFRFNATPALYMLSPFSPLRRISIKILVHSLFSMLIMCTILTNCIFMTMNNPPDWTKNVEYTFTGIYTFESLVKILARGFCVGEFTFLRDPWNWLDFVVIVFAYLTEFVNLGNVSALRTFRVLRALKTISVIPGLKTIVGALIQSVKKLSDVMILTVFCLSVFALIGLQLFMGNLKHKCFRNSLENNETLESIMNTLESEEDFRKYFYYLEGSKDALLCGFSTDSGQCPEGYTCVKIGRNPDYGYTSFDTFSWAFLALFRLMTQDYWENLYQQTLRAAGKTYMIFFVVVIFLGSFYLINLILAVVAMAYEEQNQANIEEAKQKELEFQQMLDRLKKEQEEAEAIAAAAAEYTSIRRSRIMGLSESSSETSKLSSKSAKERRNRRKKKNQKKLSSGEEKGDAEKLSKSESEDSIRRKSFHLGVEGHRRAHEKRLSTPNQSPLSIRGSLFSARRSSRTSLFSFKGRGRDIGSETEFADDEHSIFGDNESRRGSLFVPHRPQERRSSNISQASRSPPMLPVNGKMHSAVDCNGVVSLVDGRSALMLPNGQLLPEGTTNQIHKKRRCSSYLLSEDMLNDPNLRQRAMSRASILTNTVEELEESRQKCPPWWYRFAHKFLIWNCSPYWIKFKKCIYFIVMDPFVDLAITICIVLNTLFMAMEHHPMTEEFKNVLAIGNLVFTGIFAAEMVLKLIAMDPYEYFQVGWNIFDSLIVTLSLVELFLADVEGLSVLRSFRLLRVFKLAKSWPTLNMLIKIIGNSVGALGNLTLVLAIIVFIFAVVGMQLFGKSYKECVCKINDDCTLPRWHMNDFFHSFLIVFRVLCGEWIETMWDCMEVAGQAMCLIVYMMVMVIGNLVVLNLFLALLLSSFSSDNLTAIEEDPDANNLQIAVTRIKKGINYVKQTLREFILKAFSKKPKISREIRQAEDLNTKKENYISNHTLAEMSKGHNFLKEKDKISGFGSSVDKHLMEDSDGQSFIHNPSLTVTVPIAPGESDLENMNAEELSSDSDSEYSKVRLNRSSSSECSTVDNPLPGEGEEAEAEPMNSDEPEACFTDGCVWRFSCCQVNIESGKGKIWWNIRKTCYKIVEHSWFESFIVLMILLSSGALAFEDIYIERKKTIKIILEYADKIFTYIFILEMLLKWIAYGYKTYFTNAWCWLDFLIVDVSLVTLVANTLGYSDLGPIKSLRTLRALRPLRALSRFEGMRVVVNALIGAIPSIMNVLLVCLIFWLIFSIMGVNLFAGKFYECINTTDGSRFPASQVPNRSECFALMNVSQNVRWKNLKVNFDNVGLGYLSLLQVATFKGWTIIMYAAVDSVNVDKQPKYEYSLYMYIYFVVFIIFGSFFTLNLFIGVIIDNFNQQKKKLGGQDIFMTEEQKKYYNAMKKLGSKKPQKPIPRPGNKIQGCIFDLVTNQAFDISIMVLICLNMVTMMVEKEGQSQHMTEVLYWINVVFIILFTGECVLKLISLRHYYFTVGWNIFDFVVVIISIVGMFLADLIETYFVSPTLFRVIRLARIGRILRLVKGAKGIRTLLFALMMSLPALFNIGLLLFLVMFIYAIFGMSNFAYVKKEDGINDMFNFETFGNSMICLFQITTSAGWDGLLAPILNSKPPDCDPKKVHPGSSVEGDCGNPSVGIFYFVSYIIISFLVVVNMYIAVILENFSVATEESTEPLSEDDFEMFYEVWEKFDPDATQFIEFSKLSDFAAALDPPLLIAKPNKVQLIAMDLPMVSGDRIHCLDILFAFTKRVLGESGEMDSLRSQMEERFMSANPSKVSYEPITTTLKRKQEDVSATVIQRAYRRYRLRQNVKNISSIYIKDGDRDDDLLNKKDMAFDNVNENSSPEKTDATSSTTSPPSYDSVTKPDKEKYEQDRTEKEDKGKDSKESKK
Experimental: The effect of these KnotBodies on cells expressing human Nav1.7 (huNav1.7) channel was assessed using QPatch automated patch-clamp platform (Sophion). For the testing of Nav1.7 ion channel currents, CHO cells stably expressing human Nav1.7 (GenBank accession number NM 002977; cell line catalogue number CT6003, Charles River Discovery, Cleveland, USA) were subjected to the QPatch electrophysiology assay in the presence or absence of the KnotBody fusions or the antibody isotypes (negative controls). Internal and external physiological solutions were freshly prepared prior to the assay. The extracellular solution contained 145 mM NaCl, 4 mM KCl, 2 mM CaCl2, 1 mM MgCl2, 10 mM HEPES and 10 mM glucose; the pH was adjusted to 7.4 with NaOH; the osmolarity was ˜305 mOsm/L. The intracellular solution contained: KF (120 mM), KCl (20 mM), HEPES (10 mM) EGTA (10 mM); the pH was adjusted to 7.2 with KOH; osmolarity was ˜300 mOsm/L.
A series of depolarising voltage (channel activating) pulses were used to monitor the channel currents upon adding control (extracellular solution) to define a control baseline of current activity. To these measured control channel currents KnotBody or parental antibody isotypes (control molecules) were applied to the external bathing solution. The parental KnotBody KB_A12 (with trypsin inhibitor knottin EETI-II at CDR2) were used as test molecule isotype controls for the testing. […] The elicited, maximum outward current values measured during the −10 mV activating step for each solution period (a control, baseline level of current was determined at 10 minutes after application of the control external recording solution and a test level of current was determined after 20 minutes of application of KnotBody or its isotype) and average inhibition was determined between the current from the 10 minute baseline control current and the subsequent 20 minute KnotBody application. […] The average inhibition values (with external control reduction subtracted) for KnotBodies and isotypes was calculated.

B1: KB_A07: EETI-II VL CDR2 KnotBody, D1A12 VH, VL SEQ ID NO: 136/372; parental/isotype control (antibody, V domains shown)
VH: EVQLVESGGGLVRPGGSLRLSCAASGFTFSSYAMSWVRQAPGKGLEWVSAISGSGGSTYYADSVKGRFTISRDNTKNSLYLQMTSLRADDTAFYYCVKDFGPGYGTGWFDYWGPGTLVTVSS
VL: DIQMTQSPSSLSASVGDRVTITCRASQSISSYLNWYQQKPGKAPKLLIYAAGVCPRILMRCKQDSDCLAGCVCGPNGFCGSRSGVPSRFSGSGSGTDFTLTISSLQPEDFATYYCQQGASPPYTFGQGTKVEIKR
% reduction in binding signal (trypsin [1]; […], monoclonal phage, streptavidin coated plates): 98%
Tryspin binding signal (FU) (trypsin [1]; monoclonal phage supernatant, biotinylated trypsin on neutravidin coated plates, TRF): 21448 FU
% current remaining (huASIC1a): 70.9%
TRF signal for 0.6 ug/mL Fab (trypsin [2]; KnotBody Fab 0.6 ug/mL, background (no Fab) 431): 107814
TRF signal for 2.4 ug/mL Fab (trypsin [2]; KnotBody Fab 2.4 ug/mL, background (no Fab) 406): 201003
TRF signal for 10 ug/mL Fab (trypsin [2]; KnotBody Fab 10 ug/mL, background (no Fab) 420): 226082
binding to LOX-1 (LOX-1): no detectable binding to the LOX-1

B2: KB_A12_ProTx-III 2M Gly: ProTx-III 2M Gly in VL CDR2 of KB_A12, IgG; Nav1.7 KnotBody (antibody, V domains shown)
VH: EVQLVESGGGLVRPGGSLRLSCAASGFTFSSYAMSWVRQAPGKGLEWVSAISGSGGSTYYADSVKGRFTISRDNTKNSLYLQMTSLRADDTAFYYCVKDFGPGYGTGWFDYWGPGTLVTVSS
VL: QSVLTQPPSVSEAPRQRVTITCSGSSSNIGNNAVNWYQQLPGKAPKLLIYAAGRGCLKFGWKCNPRNDKCCSGLKCGSNHNWCKWHIGANSGVSDRFSAAKSGTSASLAINGLRSEDEADYYCAAWDDSLNGYVFGTGTKLTVLG
Mean % inhibition of Nav1.7 currents (human Nav1.7; concentration tested 15.4 μM): 63.5%

B3: KB_A12_ProTx-III Gly (antibody, V domains shown)
VH: EVQLVESGGGLVRPGGSLRLSCAASGFTFSSYAMSWVRQAPGKGLEWVSAISGSGGSTYYADSVKGRFTISRDNTKNSLYLQMTSLRADDTAFYYCVKDFGPGYGTGWFDYWGPGTLVTVSS
VL: QSVLTQPPSVSEAPRQRVTITCSGSSSNIGNNAVNWYQQLPGKAPKLLIYAAGRDCLKFGWKCNPRNDKCCSGLKCGSNHNWCKLHIGANSGVSDRFSAAKSGTSASLAINGLRSEDEADYYCAAWDDSLNGYVFGTGTKLTVLG
Mean % inhibition of Nav1.7 currents (human Nav1.7; concentration tested 22.3 μM): 26.6%
